In IntAct's records for PubMed 18728196:

Molecular target: pstp_myctu pstP (UniProt P9WHW5)

## ECF RNA polymerase sigma factor SigH (Mycobacterium tuberculosis (strain ATCC 25618 / H37Rv)), P9WGH9 T26A;T106A
  effect of a mutation on the interaction: disrupting interaction
